Measurements published in patent US20150252074A1, “Antagonist for (Pro)Renin Receptor for the Treatment of Hypertension and Diabetes” (priority 2012, published 2015).
Entries after “also recorded” stand apart in the source; their conditions may differ. One block for each molecule: values may come before it. Where no end group is shown, it is not given here.

What was measured:
[1] = test system: Ang II type 1 receptor (AT1R); assay: ICV losartan blockade of the pressor response induced by prorenin or renin; format: in vivo, mice; conditions: losartan 10 ug/ul ICV at 0.3 ul/minute for 10 minutes
[2] = target: T1, (pro)renin receptor (PRR) (Mus musculus, UniProt Q9CYN9); assay: ICV infusion of PRR antagonist peptides against the prorenin-induced pressor response, telemetric BP recording; format: in vivo, C57BI/6J mice; conditions: for effect on prorenin (ICV) induced pressor response (in words): ICV administration, C57BI/6J mice; for ΔMAP (prorenin-induced pressor response in peptide-infused mice): ICV infusion, peptide 45 ng/u1, mouse prorenin 100 ng/ul, vs. prorenin, N=5/group
T1 construct: intracerebroventricular (ICV) cannula for infusion of mouse prorenin (100 ng/ul), PR10, or PR20; from tissue; host or cells: brain of conscious C57Bl/6J mice (in vivo, ICV infusion)
T1 sequence (Q9CYN9 18-350): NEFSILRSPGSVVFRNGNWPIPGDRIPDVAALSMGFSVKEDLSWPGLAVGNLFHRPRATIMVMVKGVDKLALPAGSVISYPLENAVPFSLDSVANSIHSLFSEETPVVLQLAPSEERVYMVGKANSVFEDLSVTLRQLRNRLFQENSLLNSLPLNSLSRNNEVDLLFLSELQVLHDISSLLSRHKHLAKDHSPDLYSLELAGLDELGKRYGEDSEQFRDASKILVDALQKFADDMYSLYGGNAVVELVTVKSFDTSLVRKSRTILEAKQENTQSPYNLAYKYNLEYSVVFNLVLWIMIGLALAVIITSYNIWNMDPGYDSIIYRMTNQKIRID
Procedure: C57BI/6J mice (N=5/group) were each implanted with a telemetric probe for BP recording and an intracerebroventricular (ICV) cannula for infusion of mouse prorenin (100 ng/ul), PR10, or PR20 (45 ng/u1) at 0.3 ul/minute for 10 minutes. Mouse prorenin infusion increased the BP (mmHg) in WT mice (ΔMAP: 31.3±1.1); however, the prorenin-induced pressor response was abolished in either PR10 (ΔMAP: 16.9±4.4 vs. prorenin) or PR20 (ΔMAP: 12.7±0.5 vs. prorenin) infused mice.

[3] = target: (pro)renin receptor (PRR) in mouse brain sections (mouse) (UniProt Q9CYN9); assay: cell-based or functional assay
Chain of (pro)renin receptor (PRR) in mouse brain sections (mouse) (Q9CYN9 18-350): as above

WT mice = assay: Pressor response to ICV infusion of mouse prorenin or mouse renin in wildtype (WT) mice, telemetric BP recording; format: in vivo; conditions: 100 ng/ul at 0.3 ul/minute for 10 minutes ICV, N=5/group
Procedure: (§1) FIG. 6 is a series of graphs illustrating the pressor response to intracerebroventricular (ICV) infusion of carbachol (FIG. 6A), Ang II (FIG. 6B), renin (FIG. 6C), and prorenin (FIG. 6D) in wild-type (WT) and Nefh-PRR mice. WT and Nefh-PRR mice were implanted with telemetric transmitters and ICV cannula. Two weeks after recovery, mice were ICV infused (0.3μl/min) with carbachol (100 ng/μl), Ang II (100 ng/μl), Ang II (100 ng/μl)+losartan (10 μg/μl), mouse renin (100 ng/μl), mouse prorenin (100 ng/μl), or mouse prorenin (100 ng/μl)+losartan (10 μg/μl) over 10 minutes. Blood pressure (BP) was recorded in conscious freely moving mice. *P<0.05 vs. WT.
(§2) Neuron-specific PRR knockout mice (Nefh-PRR) and wildtype (WT) littermates (N=5/group) were each implanted with a telemetric probe for blood pressure (BP) recording and an intracerebroventricular (ICV) cannula for infusion of mouse prorenin (100 ng/ul), mouse renin (100 ng/ul), or an Ang II type 1 receptor (AT1R) blocker (losartan, 10 ug/ul) at 0.3 ul/minute for 10 minutes. Mouse prorenin infusion increased the BP (mmHg) in WT mice (ΔMAP: 41±5); however, the prorenin induced pressor response was abolished in Nefh-PRR mice (ΔMAP: 5±1).

Nefh-PRR mice = assay: Pressor response to ICV infusion of mouse prorenin or mouse renin in neuron-specific PRR knockout mice (Nefh-PRR); format: in vivo; conditions: 100 ng/ul at 0.3 ul/minute for 10 minutes ICV, N=5/group
Procedure: as §1, §2

[4] = target: T2, (pro)renin receptor (PRR) in mouse brain sections (mouse, UniProt Q9CYN9 18-350); assay: FITC-labelled peptide, fluorescence microscopy on mouse brain sections
T2 construct: whole, on cells; Endogenous receptor in mouse brain tissue, not a recombinant construct
T2 sequence (Q9CYN9 18-350): as above
Procedure: In order to determine which residues of the PR20 antagonist peptide are involved in binding PRR, an alanine replacement assay was performed. A series of peptides comprising a single alanine substitution at each of the 19 amino acid positions were generated. Each of the 19 alanine substituted peptides and the PR20 peptide were labeled with FITC. Using fluorescent microscopy, each peptide was examined for binding to PRR in mouse brain sections.

Molecule: CCCCc1nc(Cl)c(CO)n1Cc1ccc(-c2ccccc2-c2nn[nH]n2)cc1 [losartan]
effect on pressor response induced by prorenin or renin (in words) [1]: completely blocked

Molecule: IFDNIISQGVLKEDVF (PRR antagonist peptide (PR10))
effect on prorenin (ICV) induced pressor response (in words) [2]: abolished; also recorded: significantly reduced
ΔMAP (prorenin-induced pressor response in peptide-infused mice) ([2]; 0.3 ul/minute for 10 minutes): 16.9±4.4 mmHg

Molecule: LPTDTTTFKRIFLKRMPSI (PRR antagonist peptide (PR20))
effect on prorenin (ICV) induced pressor response (in words) [2]: abolished; also recorded: significantly reduced
ΔMAP (prorenin-induced pressor response in peptide-infused mice) ([2]; 0.3 ul/minute for 10 minutes): 12.7±0.5 mmHg

pressor response to ICV mouse prorenin in WT mice (ΔMAP) [3]: 41 mmHg
pressor response to ICV mouse prorenin in neuron-specific PRR knockout (Nefh-PRR) mice (ΔMAP) [3]: 5 mmHg
Molecule: mouse prorenin (from UniProt P06281 22-402) (ligand)

B1: mouse prorenin: activating ligand of PRR, infused ICV to induce a pressor response (protein)
chain: LPTRTATFERIPLKKMPSVREILEERGVDMTRLSAEWGVFTKRPSLTNLTSPVVLTNYLNTQYYGEIGIGTPPQTFKVIFDTGSANLWVPSTKCSRLYLACGIHSLYESSDSSSYMENGSDFTIHYGSGRVKGFLSQDSVTVGGITVTQTFGEVTELPLIPFMLAKFDGVLGMGFPAQAVGGVTPVFDHILSQGVLKEEVFSVYYNRGSHLLGGEVVLGGSDPQHYQGNFHYVSISKTDSWQITMKGVSVGSSTLLCEEGCAVVVDTGSSFISAPTSSLKLIMQALGAKEKRIEEYVVNCSQVPTLPDISFDLGGRAYTLSSTDYVLQYPNRRDKLCTLALHAMDIPPPTGPVWVLGATFIRKFYTEFDRHNNRIGFALAR
ΔMAP (pressor response to ICV infusion) (WT mice): 41±5 mmHg
ΔMAP (pressor response to ICV infusion) (Nefh-PRR mice): 5±1 mmHg
ΔMAP (increase of BP by mouse prorenin infusion alone) ([2]; ICV mouse prorenin 100 ng/ul, 0.3 ul/minute for 10 minutes, WT (C57BI/6J) mice): 31.3±1.1 mmHg

B2: mouse renin: mouse renin protein infused ICV to induce a pressor response (protein, UniProt P06281 72-402, looked up)
Renin-1: SPVVLTNYLNTQYYGEIGIGTPPQTFKVIFDTGSANLWVPSTKCSRLYLACGIHSLYESSDSSSYMENGSDFTIHYGSGRVKGFLSQDSVTVGGITVTQTFGEVTELPLIPFMLAKFDGVLGMGFPAQAVGGVTPVFDHILSQGVLKEEVFSVYYNRGSHLLGGEVVLGGSDPQHYQGNFHYVSISKTDSWQITMKGVSVGSSTLLCEEGCAVVVDTGSSFISAPTSSLKLIMQALGAKEKRIEEYVVNCSQVPTLPDISFDLGGRAYTLSSTDYVLQYPNRRDKLCTLALHAMDIPPPTGPVWVLGATFIRKFYTEFDRHNNRIGFALAR
ΔMAP (pressor response to ICV infusion) (WT mice): 31±5 mmHg
ΔMAP (pressor response to ICV infusion) (Nefh-PRR mice): 27±2 mmHg

binding result [4]: binds
Molecule: LPTDTTTFKRIFLKRMPSI (also: FITC label, site not given here, also called PR20 antagonist peptide) [PR20 peptide labeled with FITC]
